{"source": "paper PMC7036284", "about": "(Chemical research in toxicology, 2019)"}
{"target": "the molecule itself", "experiment": "native gel or EMSA"}
{"protein": "wild-type Tsa1 (recombinant, 6X-His tagged) (enzyme, S. cerevisiae) MVAQVQKQAPTFKKTAVVDGVFDEVSLDKYKGKYVVLAFIPLAFTFVCPTEIIAFSEAAKKFEEQGAQVLFASTDSEYSLLAWTNIPRKEGGLGPINIPLLADTNHSLSRDYGVLIEEEGVALRGLFIIDPKGVIRHITINDLPVGRNVDEALRLVEAFQWTDKNGTVLPCNWTPGAATIKPTVEDSKEYFEAANK", "stoichiometry N": 10}
{"protein": "F^44A Tsa1 (recombinant, 6X-His tagged) (enzyme, S. cerevisiae) MVAQVQKQAPTFKKTAVVDGVFDEVSLDKYKGKYVVLAFIPLAATFVCPTEIIAFSEAAKKFEEQGAQVLFASTDSEYSLLAWTNIPRKEGGLGPINIPLLADTNHSLSRDYGVLIEEEGVALRGLFIIDPKGVIRHITINDLPVGRNVDEALRLVEAFQWTDKNGTVLPCNWTPGAATIKPTVEDSKEYFEAANK", "stoichiometry N": 2}
{"target": "the molecule itself", "experiment": "SEC-MALS"}
{"protein": "F^44L Tsa1 (recombinant, 6X-His tagged) (enzyme, S. cerevisiae) MVAQVQKQAPTFKKTAVVDGVFDEVSLDKYKGKYVVLAFIPLALTFVCPTEIIAFSEAAKKFEEQGAQVLFASTDSEYSLLAWTNIPRKEGGLGPINIPLLADTNHSLSRDYGVLIEEEGVALRGLFIIDPKGVIRHITINDLPVGRNVDEALRLVEAFQWTDKNGTVLPCNWTPGAATIKPTVEDSKEYFEAANK", "stoichiometry N": 2}
{"protein": "FYA Tsa1 (F^44A,Y^78A; recombinant, 6X-His tagged) (enzyme, S. cerevisiae) MVAQVQKQAPTFKKTAVVDGVFDEVSLDKYKGKYVVLAFIPLAATFVCPTEIIAFSEAAKKFEEQGAQVLFASTDSEASLLAWTNIPRKEGGLGPINIPLLADTNHSLSRDYGVLIEEEGVALRGLFIIDPKGVIRHITINDLPVGRNVDEALRLVEAFQWTDKNGTVLPCNWTPGAATIKPTVEDSKEYFEAANK", "stoichiometry N": 2}
{"protein": "Y^78L Tsa1 (recombinant, 6X-His tagged) (enzyme, S. cerevisiae) MVAQVQKQAPTFKKTAVVDGVFDEVSLDKYKGKYVVLAFIPLAFTFVCPTEIIAFSEAAKKFEEQGAQVLFASTDSELSLLAWTNIPRKEGGLGPINIPLLADTNHSLSRDYGVLIEEEGVALRGLFIIDPKGVIRHITINDLPVGRNVDEALRLVEAFQWTDKNGTVLPCNWTPGAATIKPTVEDSKEYFEAANK", "stoichiometry N": 2}
{"protein": "Y^78A Tsa1 (recombinant, 6X-His tagged) (enzyme, S. cerevisiae) MVAQVQKQAPTFKKTAVVDGVFDEVSLDKYKGKYVVLAFIPLAFTFVCPTEIIAFSEAAKKFEEQGAQVLFASTDSEASLLAWTNIPRKEGGLGPINIPLLADTNHSLSRDYGVLIEEEGVALRGLFIIDPKGVIRHITINDLPVGRNVDEALRLVEAFQWTDKNGTVLPCNWTPGAATIKPTVEDSKEYFEAANK", "stoichiometry N": 2}
{"protein": "FYL Tsa1 (F^44L,Y^78L; recombinant, 6X-His tagged) (enzyme, S. cerevisiae) MVAQVQKQAPTFKKTAVVDGVFDEVSLDKYKGKYVVLAFIPLALTFVCPTEIIAFSEAAKKFEEQGAQVLFASTDSELSLLAWTNIPRKEGGLGPINIPLLADTNHSLSRDYGVLIEEEGVALRGLFIIDPKGVIRHITINDLPVGRNVDEALRLVEAFQWTDKNGTVLPCNWTPGAATIKPTVEDSKEYFEAANK", "stoichiometry N": 2}
